Results: a protein production outcome set (Wang et al. 2014)

Test: label from the status in PepcDB records
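Also: failed if final PepcDB status was selected cloned or expressed and not failed if soluble or beyond.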

| Sequence | protein production |
| --- | --- |
| MARAKNVLWIMCDQLRYDYLGCTGHPTLKTPNIDAMAKRGVLFSKAYVQSPICGPSRMSFYTGRYMRSHGSHWNGWPLRVGEPTLGDHLKKIGVRNVLVGKTHMAPDLEGMKALGIPPESMIGVHVAECGFEPYERDDGLHPTGRPRPKYDEYLRKQGFEATNPWEHWANSGAAEDGSLQNGWLLVHADKAARVPEEHSETPYMTRRAMDFISEAETDGKPWCLHLSYIKPHWPYIAPEPYASMYSTDDMIPVIRSERERQNPHPVFGAYMDMRYSRNMARDDAREKVIPTYMGLITQIDDQMGALMKFLEERGLLDTTMIVFTSDHGDYLGDHWMGEKDLFHEQSAKIPLIIIDPSREADATRGTRSDALVEGIDLAPTFVDYFGGKVPGHILEGRSLLPLLRGPTPPDWRKVAFSEYDYAMQDVRLKLNQPIERCRLFMVFDGRWKYIHASGFRPMLYDLETDPEEFLDRGDDPDCAGIIARLQAELFDWALHPNDHITTPREKIAAYADNQLQVKGGVLIGIWDEAELAAIKDGIAQRAKL | failed |
| MSQTDELTGTANRRFVFAKLALQVEQVSKGLEAPFCLCTLDIDFFKQINDRFGHKCGDAVLRDFVGIAHSVIRRVDCFGRIGGEEFMLILPRSSIAEGREIVERLLQKVRLSRPLSEFPDFSYSCSAGMTVFRMMENADDVFMRADQALYAAKEKGRDRLLAVTLEHHHHHH | failed |
| MNQRLDHYLKNTNQCETRSKAIDLIKRGRVFVNNFQVLKPSFLVKQTDSVEIKNDEMYFVSKGGYKLLKIIKEINLIIKNFVIADLGSSTGGFTDCCLQLGAKKIYAIDVGVDLLHPSLKKSYKIINYEKTNVKNLDKSYFLEDLDLIVGDLSFISLEQIFPIIKKISSPKTLLLLLIKPQFELGKDVASKYKGLIQNQKLQQLAINKIINLAKNYDFECKHLTPTDIFDEKKQNQEYMIFLQKHEK | failed |
| MNNKITKTSIFLTISLLLITPGFSVVAVGLLTLYSSVKLIKNGLNLNKFDIIPLITLSAYFLSNLPITIIDGDTLRYLDAGIRALLCIPMYFFIKNEISKGANLDNTLCTSTILASFGALAFAFYQFFILNMPRVDGFLFSINFGYLAAALAILSFGLSFTQTRFKYYLYLSVVAATVATILTLTRGAILTLLFVFILFFIVNVRKIKFKQTLVFTLISFLLVSVSYQFSPRIQERVDFTIFEISSIASNNIHAAASSGGRLQLWYAAVEAFKHNPIWGTTYSERESLNIELFKEGKVDEWTSTVPRGHAHSQYFEAIASNGTLGILAIFAMLILPFGVFLNDYRKTGSPISQTGYLFAFGFIIFCLTEAPLQANLIGTFYGFMVAIFYAYIAAKRAKN | failed |
| METLSVGHKIKTLRQSLGLSQRDLAEGICTQALISHIEKNKTTPTVDVFFNIAKKLGAPADYFLETHDNSLDYILEVQYQIRKQVQEHNYEEALNIIKTERKNPIFNNSKYLQFLLWHEAICEYSLNKRYNEAVEAIEEALKLTHKEGNSYSEREIEILISLANFHDSEKKYDLSTKIYQDINDSLKALSYLSDRKIQLRFLFNYSLNRNNVKRYKEAIDLCNKGIILCKQHGFLYSFGEFHYQKGQNLIDLGRKKEALKFLEKAKMIFDIQDNELFANIADKEIKKLQKSLEMTVS | failed |
| MPAKPIDLGPMHFEKKEDAVAYLHKMLHRYDLGDKVSDDDAIILRAALAHHRDAEVKVGCGITYFSVRTADFGTRCFWLNRNDGTTEKFSHKTCIYSTLEHHHHHH | not failed |
| MRGDKFTLRDSLCLKVDGGRGVCLKGDGGRGVCLKGDGGRGVCLKGDSCDFNHSYTLPRREEVEKHQIELFKEEILSYMRKWISPHEFLQKVLDFNLKSLLVDLAATFNVRYPERQRLLV | failed |
| MNVLALDTSQRIRIGLRKGEDLFEISYTGEKKHAEILPVVVKKLLDELDLKVKDLDVVGVGIGPGGLTGLRVGIATVVGLVSPYDIPVAPLNSFEMTAKSCPADGVVLVARRARKGYHYCAVYLKDKGLNPLKEPSVVSDEELEEITKEFSPKIVLKDDLLISPAVLVEESERLFREKKTIHYYEIEPLYLQKSIAELNWEKKKRG | not failed |
| MSTARPRIITSKAPLLPQQTTPEQRYWRQYTSAQLVKEHNSVTHISFNPQHPHDFAVTSSTRVQIFSSRTRQVIKTFSRFKDVVYSASFRSDGKLLCAGDATGLVSVYDSYNPRTILLSINASTHPTHVTKFHTQDNKILATASDDRVTRLWDISNAYEPQLELTGATDYVRTLSFIPAAPHLVATGSYDGLIRLYDTRSSGSTPIYSLNHDQPVENVIAVSPTQIVSCGGNNFKVWDLTSNKKLYERGNFNKAVTCLDYVENFDSPMQSALIASSLDGHVKVFDPLDNFQVKFGWKFSGPVLSCAVSPSTAQGNRHLVAGLSSGLLAIRTKKKEKRSSDKENAPASFNKNAKSNNFQRMMRGSEYQGDQEHIIHNDKVRSQRRMRAFERNINQFKWSEALDNAFVPGMAKELTLTVLQELRKRGKVRVALYGRDESTLEPLLNWCLKGIEDVRSASIVADWVAVVLELYGNTLESSPVLQELMIDLKTKVRHEIHKSKEAQRIEGMLQLLTS | failed |
| DQPVINFGIISTESSQNLKSIWEPFLKDMSQQTGYQVKAFFAPDYAGIIQGMRFDKVDIAWYGNKAAMEAVDRAHGEIFAQTVAASGAPGYWSLLIANKDSKIDSLEDMLANAKSLTFGNGDPNSTSGYLVPGYYVFAKNNVDPVKAFKRTLNSSHEVNALAVANKQVDVATFNTEGMERLELTQPEKARQLKVIWKSPLIPGDPLVWRNNLSDEQKNKLRDFFFKYGANAEQKKVLADLQWSKFQPSDDDQLLPIRQLELFKQRTDVANNANLGAEEKAAKLKALDEELAKLEKRMAEREQKTAANAG | not failed |
| MVNQQEEINLSVALVTRNRPDSLERCLKSLRDQKVQPFEVVVSDDSDDLYKSSTKEIAQKWGCRYIDGPKRGLYANRNYVALACYGTHIRTMDDDHEFPEQHIEVCLNAIQSDPSSIWIIGEYSPTSSIENAPHPCPGQLHPRGFSFYPKDTQNCWAIADGASIYPKKIFASGLRFVEYYKFGASYLEWGSRLYYLSYRIRHLDSTYIIHHFNPKARSFSDQEMDQSSRFFAMLCHSFLYQSTFKNKCLFSYEILKQFILDPKLTIKCIINSWSNFELFSRSFCALEHHHHHH | failed |
| MSGSLEIPGLDDGLLPVETGYGLFQGTAKKRVVICNDNDKFRHSGPLPRALCGSFAAIGLLPLPVVETRPAPPPKVAPITPALQGKACGQAVFEGLRNKNAVETVDNLPALRQTARTGKRWKALESLMQETPAIIYKIVPETLWTAARAEGMFEGAAIDLTDGFIHFSTAKQVAETAARHFSGQVDLLLIAVDGAALGDKLVYEPSRGGDLFPHLYAPLPFSAVLWETPLSLDHDGQHQFPEILLEHHHHHH | failed |
| MRRHTSSLDDQSLWRVALDYARDAAVIIDDGGHICYVNQAAERIWGIGRADLVGSHSDCLGVDAIQPEPVAGSHLTNAASDLPLAIDITSRDNRSITAELTRSTIRVDGLNYTMLTVRDVT | failed |
| AMPIAKAIEEKWGVPAEVVIAQAALESGWGKHVKGNAYFGIKGKGSQGSINFGTHEVINGKKISINDNFASYGGFGDAANGYGEFLNKNKRYREAFKHKDNPVEFAKAIARAGYATDPDYANKLTKIIQSNKFS | not failed |
| MCHSGTFHLTAGESVEWVLTWAPSFEPHPPMPDYTRSLESTLSFWASWVEELPHQRLYDAEVRRSMLVLRALTDLQTGGIVAAPTTSLPEDFGGIRNWDYRYVWLRDSALTIEALVEYGFSQAALQWRTWLLRAIAGDPENLRIMYGLGGERHLPERELQHLRGYENSVPVRVGNGAAEQYQADVVGEVMVALETIRRAGCLEDEFSWGMQKAILDFQEANFDRKDQGIWEMRSEPQYFTHGRAMMWAGFDRGIKAIEEFNLDGPIERWRELRAKLREEIMTNGFNEEIQSFTQCYDNTQVDASLLQLAQIGFIGFDDPKMLSTVARIEQELLDAHGFLHRYHTDGSDGLAGDEYPFLICSFWLVEQYASSNRLDEAKEKMNRILAVQSPLGLLAEEYSTHHGRLAGNYPQAFSHIGLISAARAINFEEARNRLEHHHHHH | failed |
| MILHRYLLRESLPVLLLALLFLTAVYLFGFFYAGARWLEGVPLPKILRWLSYHVPGIWVQVFPIALVTTTVLVFGRLAAEGAHFALLSAGIPLGRAALPLVAVGAVLSGLALYLQEYVVPEANNRVRVAWWDEIHTQGAGLFRLKGMQIPIGQGKSLYFQDFDMAAKEMVGVRITAFQGEVGTFLFAERGTWEDKTLTLKDYRYYQVDFAQVPGLETAPDLLAQVRRVFRVVSQGKTLEVTSDLSRARAIADYADTFSFGQDSLSEAWRKLKDPFLPPLEKWRARLELHSKLALPLANLVLVLLAAAMALRYGKSPGLALGMSVVLALAYYGAFFLGRALAGIGALPPELGAWGANLLFLLLGLRALR | failed |
| MKVVLVGATGFVGRHLLAALHAAGHQLIATSRRPQPQGLPGVEWRQLDLDCLGREPQPFALPADTDLLINAAGLLSTDARALSLTQDLGTRALFDLAAARGVRVLQISALGAGILPQVPFLASKAAADDYLLQLGVPAVVLRPSLVLGAGGASSGWLTRLSPWPLIPLLSAKAQMQPLHIEDLSAAVLALLRQWPQESMVLPLVGPERMTMAQLLDRLRSAQGWAPARYFKLPAVLLRLVAAAGDRLGWRALNRQSLAMARHDNLADPQVLASVCGYHAAPLAARLQDWPQAAQSTQLALRPLLLAVMVLIWLGTALVCIGPGYAWGLRIMAEAGVQGIWAALAVIGGSLCDALLGVGLLLRRWRRRALQAQLGLMLGYTLIISLILPHFWFDPYAAVAKNLVLMVATLWLLWTEPHQ | failed |
| MTAEETVNVKEVEIIKLILDFLNSKKLHISMLALEKESGVINGLFSDDMLFLRQLILDGQWDEVLQFIQPLECMEKFDKKRFRYIILKQKFLEALCVNNAMSAEDEPQHLEFTMQEAVQCLHALEEYCPSKDDYSKLCLLLTLPRLTNHAEFKDWNPSTARVHCFEEVCVMVAEFIPADRKLSEAGFKASNNRLFQLVMKGLLYECCVEFCQSKATGEEITESEVLLGIDLLCGNGCDDLDLSLLSWLQNLPSSVFSCAFEQKMLNIHVDKLLKPTKAAYADLLTPLISKLSPYPSSPMRRPQSADAYMTRSLNPALDGLTCGLTSHDKRISDLGNKTSPMSHSFANFHYPGVQNLSRSLLLENTECHSIYEESPERSDTPVETQQPVSIEPMCQGSGLEKEPANGAQNPVPAKQQEKNELRDSTEQFQEYYRQRLRYQQHLEQKEQQRQIYQQMLLEGGVNQEDGPDQQQNLTEQFLNRSIQKLGELNIGMDSLGNEVPVLNQQCLGSKNSGSNNSSVTSFSSPPQDSSQRLTHDTSNIHTSTPRNPGSTNHIPFLEESPCGSQNSSEHSVVKPSPGDSSGSLSRSKGEEDDKSKKQFVCINTLEDTQAVRAVAFHPSGSLYAVGSNSKTLRVCAYPEKLDTSAHDGPKQPVVRFKRNKHHKGSIYCVAWSPCGQLLATGSNDKYVKVLPFNAETCNATGPDLEFSMHDGTIRDLAFMEGPESGGAILISAGAGDCNIYTTDCQRGQGLHALSGHTGHILALYTWSGWMIASGSQDKTVRFWDLRVPSCVRVVGTTFHGTGSAVASVAVDPSGRLLATGQEDSSCMLYDIRGGRMVQSYHPHSSDVRSVRFSPGAHYLLTGSYDMKIKVTDLQGDLTKQLPLMVVGEHKDKVIQCRWHTQDLSFLSSSADRTVTLWTYSG | failed |
| VLRWITAGESHGRALVAVVEGMVAGVHVTSADIADQLARRRLGYGRGARMTFERDAVTVLSGIRHGSTLGGPIAIEIGNTEWPKWETVMAADPVDPAELADVARNAPLTRPRPGHADYAGMLKYGFDDARPVLERASARETAARVAAGTVARAFLRQALGVEVLSHVISIGASAPYEGPPPRAEDLPAIDASPVRAYDKAAEADMIAQIEAAKKDGDTLGGVVEAVALGLPVGLGSFTSGDHRLDSQLAAAVMGIQAIKGVEIGDGFQTARRRGSRAHDEMYPGPDGVVRSTNRAGGLEGGMTNGQPLRVRAAMKPISTVPRALATVDLATGDEAVAIHQRSDVCAVPAAGVVVETMVALVLARAALEKFGGDSLAETQRNIAAYQRSVADREAPAARVSG | not failed |
| MSNPLGELVKALEKLSFKPSDVRIYSLLLERGGMRVSEIARELDLSARFVRDRLKVLLKRGFVRREIVEKGWVGYIYSAEKPEKVLKEFKSSILGEIERIEKMFTD | not failed |
